Source: US20230277590A1

Legend:
[1] = target: Mesothelin (MSLN) on target cells (human)
[2] = target: Mesothelin (MSLN) on target cells (human); remark: listed apart in the source

EC50, Jurkat NFAT luciferase, HEK293 cells transfected with titrated MSLN mRNA (MSLN molecules/cell) [2]	Substance	Time (hours) to 80% max killing of HeLa cells by transduced primary T cells (hours to 80% max killing (E:T 4:1)) [1]
	M5 MSLN CAR, third generation	28
80000	m912 MSLN CAR (Gen3)	
